Measured values reported in article doi:10.1101/2025.06.24.661301.
Read-outs that look alike come from different tables or passages of the source.

How the values were obtained:
[1] = biological target: Arp2/3 complex (human) (UniProt P61158); test: SPR
[2] = biological target: Arp2/3 complex (human) (UniProt P61158); test: SPR; remark: listed apart in the source

Substance: Arpin CT peptide (residues 192-226) (from UniProt Q7Z6K5-1 192-226)
- Kd [1]: 17.8 µM

Substance: GST-aCT (chimeric protein with Arpin's CT fused to the C-terminus of glutathione S-transferase through the spacer -GSSG-)
- Kd [1]: 2.5 µM

Substance: full-length Arpin (SEC fractions used in SPR) (from UniProt Q7Z6K5-1 1-226) (natural protein)
- Kd [1]: 14.1 µM
- Kd [2]: 48.9 µM

Substance: human Arpin with the double-site alanine substitution F95A/M97A (from UniProt Q7Z6K5-1 1-226) (natural protein)
- Kd [1]: 63.1 µM
